# Measurements published in patent US20100075326A1.
# Like-named read-outs stand apart in the source and are kept apart here.
# Assays:
# [1] = target: high affinity (HA) LFA-1 I domain K287C/K294C, soluble, refolded from E. coli (UniProt P20701); assay: SPR (Biacore), I domain injected over scFv AL-57 chip, 10 mM MgCl2
# [2] = target: LFA-1 I domain F265S, soluble, refolded from E. coli (UniProt P20701); assay: as above
# [3] = target: LFA-1 I domain L295P, soluble, refolded from E. coli (UniProt P20701); assay: as above
# [4] = target: wild-type LFA-1 I domain, YS2H bait fused to Aga2 with C-terminal FLAG tag (yeast) (UniProt P20701); assay: YS2H: I domain bait on the yeast surface (Aga2 fusion, Flag tag), secreted scFv prey with Myc tag; flow cytometry, mean ± standard error of three measurements; paragraph 71 says goat polyclonal anti-murine antibody was the primary antibody for detecting TS1/22; Flag (bait) MFI 40±0.3
# [5] = target: the wild-type and HA I domain; assay: predicted from YS2H (flow cytometry of Myc and FLAG tags, Langmuir equation)
# [6] = target: high affinity (HA) LFA-1 I domain K287C/K294C, YS2H bait fused to Aga2 with C-terminal FLAG tag (yeast) (UniProt P20701); assay: YS2H: I domain bait on the yeast surface (Aga2 fusion, Flag tag), secreted scFv prey with Myc tag; flow cytometry, mean ± standard error of three measurements; paragraph 71 says goat polyclonal anti-murine antibody was the primary antibody for detecting TS1/22; Flag (bait) MFI 44±2
# [7] = target: LFA-1 I domain L295P, YS2H bait fused to Aga2 with C-terminal FLAG tag (yeast) (UniProt P20701); assay: YS2H: I domain mutant bait on the yeast surface, secreted scFv AL-57 prey with Myc tag; flow cytometry with anti-Myc antibody, 10 mM MgCl2, mean ± standard error of three measurements; Flag (bait) MFI 40±2
# [8] = target: high affinity (HA) LFA-1 I domain K287C/K294C, YS2H bait fused to Aga2 with C-terminal FLAG tag (yeast) (UniProt P20701); assay: YS2H: I domain bait on the yeast surface (Aga2 fusion, Flag tag), secreted scFv prey with Myc tag; flow cytometry with anti-Myc antibody, mean ± standard error of three measurements; Flag (bait) MFI 85±7
# [9] = target: LFA-1 I domain F265S, YS2H bait fused to Aga2 with C-terminal FLAG tag (yeast) (UniProt P20701); assay: predicted from YS2H (flow cytometry of Myc and FLAG tags, Langmuir equation)
# [10] = target: wild-type LFA-1 I domain, YS2H bait fused to Aga2 with C-terminal FLAG tag (yeast) (UniProt P20701); assay: YS2H: I domain bait on the yeast surface (Aga2 fusion, Flag tag), secreted scFv prey with Myc tag; flow cytometry with anti-Myc antibody, mean ± standard error of three measurements; Flag (bait) MFI 79±1
# [11] = target: LFA-1 I domain F265S, YS2H bait fused to Aga2 with C-terminal FLAG tag (yeast) (UniProt P20701); assay: YS2H: I domain mutant bait on the yeast surface, secreted scFv AL-57 prey with Myc tag; flow cytometry with anti-Myc antibody, 10 mM MgCl2, mean ± standard error of three measurements; Flag (bait) MFI 52±8
# [12] = target: LFA-1 I domain L295P, YS2H bait fused to Aga2 with C-terminal FLAG tag (yeast) (UniProt P20701); assay: YS2H as in the row 'Myc', but labelled without metal ions with 10 mM EDTA (row 'Myc+ EDTA'); Flag (bait) MFI 40±2
# [13] = target: high affinity (HA) LFA-1 I domain K287C/K294C, YS2H bait fused to Aga2 with C-terminal FLAG tag (yeast) (UniProt P20701); assay: predicted from YS2H (flow cytometry of Myc and FLAG tags, Langmuir equation)
# [14] = target: LFA-1 I domain F265S, YS2H bait fused to Aga2 with C-terminal FLAG tag (yeast) (UniProt P20701); assay: as above; remark: listed apart in the source
# [15] = target: LFA-1 I domain L295P, YS2H bait fused to Aga2 with C-terminal FLAG tag (yeast) (UniProt P20701); assay: as above
# [16] = target: LFA-1 I domain F265S, YS2H bait fused to Aga2 with C-terminal FLAG tag (yeast) (UniProt P20701); assay: YS2H as in the row 'Myc', but labelled without metal ions with 10 mM EDTA (row 'Myc+ EDTA'); Flag (bait) MFI 52±8
substance,measurement,setting,value
"scFv AL-57, soluble, refolded from E. coli",Kd,[1],32.6 nM
same,Kd,[2],15.7 nM
same,Kd,[3],243 nM
"scFv TS1/22, secreted YS2H prey with C-terminal Myc tag",MFI (row 'Myc'),[4],38
same,Kd,[5],148 to 237 nM
same,MFI (row 'Myc'),[6],40
"scFv AL-57, secreted YS2H prey with C-terminal Myc tag",MFI (anti-Myc),[7],13
same,MFI (anti-Myc),[8],80
same,Kd,[9],148 to 237 nM
same,MFI (anti-Myc),[10],12
same,MFI (anti-Myc),[11],32
same,"MFI (anti-Myc, with EDTA)",[12],10
same,Kd,[13],151 nM
same,Kd,[14],237 nM
same,Kd,[15],440 nM
same,"MFI (anti-Myc, with EDTA)",[16],15
